Measurements published in article PMC6017454, “A Xylenol Orange-Based Screening Assay for the Substrate Specificity of Flavin-Dependent para-Phenol Oxidases” (Molecules : A Journal of Synthetic Chemistry and Natural …, 2018).

Legend:
[1] = substrate: COc1cc(CO)ccc1O; test: purified protein; format: biochemical, Rhodococcus jostii; settings: 50 mM potassium phosphate, pH 7.5, 25 °C, O2 as electron acceptor
[2] = substrate: COc1cc(CO)ccc1O; test: purified protein; format: biochemical, Penicillium simplicissimum; settings: 50 mM potassium phosphate, pH 7.5, 25 °C, O2 as electron acceptor

B1: EUGO-His (eugenol oxidase) (Rhodococcus jostii RHA1) (protein)
chain: MTRTLPPGVSDERFDAALQRFRDVVGDKWVLSTADELEAFRDPYPVGAAEANLPSAVVSPESTEQVQDIVRIANEYGIPLSPVSTGKNNGYGGAAPRLSGSVIVKTGERMNRILEVNEKYGYALLEPGVTYFDLYEYLQSHDSGLMLDCPDLGWGSVVGNTLDRGVGYTPYGDHFMWQTGLEVVLPQGEVMRTGMGALPGSDAWQLFPYGFGPFPDGMFTQSNLGIVTKMGIALMQRPPASQSFLITFDKEEDLEQIVDIMLPLRINMAPLQNVPVLRNIFMDAAAVSKRTEWFDGDGPMPAEAIERMKKDLDLGFWNFYGTLYGPPPLIEMYYGMIKEAFGKIPGARFFTHEERDDRGGHVLQDRHKINNGIPSLDELQLLDWVPNGGHIGFSPVSAPDGREAMKQFEMVRNRANEYNKDYAAQFIIGLREMHHVCLFIYDTAIPEAREEILQMTKVLVREAAEAGYGEYRTHNALMDDVMATFNWGDGALLKFHEKIKDALDPNGIIAPGKSGIWSQRFRGQNL
notes: E. coli TOP10; covalent FAD; EUGO dimeric
- Km [1]: 47 ± 5 µM
- kcat [1]: 8 ± 0.2 s⁻¹
- kcat/Km [1]: 170000 M⁻¹ s⁻¹

B2: His-VAO (vanillyl alcohol oxidase) (Penicillium simplicissimum) (protein)
chain: MSKTQEFRPLTLPPKLSLSDFNEFIQDIIRIVGSENVEVISSKDQIVDGSYMKPTHTHDPHHVMDQDYFLASAIVAPRNVADVQSIVGLANKFSFPLWPISIGRNSGYGGAAPRVSGSVVLDMGKNMNRVLEVNVEGAYCVVEPGVTYHDLHNYLEANNLRDKLWLDVPDLGGGSVLGNAVERGVGYTPYGDHWMMHSGMEVVLANGELLRTGMGALPDPKRPETMGLKPEDQPWSKIAHLFPYGFGPYIDGLFSQSNMGIVTKIGIWLMPNPRGYQSYLITLPKDGDLKQAVDIIRPLRLGMALQNVPTIRHILLDAAVLGDKRSYSSRTEPLSDEELDKIAKQLNLGRWNFYGALYGPEPIRRVLWETIKDAFSAIPGVKFYFPEDTPENSVLRVRDKTMQGIPTYDELKWIDWLPNGAHLFFSPIAKVSGEDAMMQYAVTKKRCQEAGLDFIGTFTVGMREMHHIVCIVFNKKDLIQKRKVQWLMRTLIDDCAANGWGEYRTHLAFMDQIMETYNWNNSSFLRFNEVLKNAVDPNGIIAPGKSGVWPSQYSHVTWKL
notes: N-terminal 6xHis tag plus single Gly, tag kept; codon-optimised, E. coli BL21; covalent FAD; VAO predominantly octameric
- Km [2]: 129 ± 15 µM
- kcat [2]: 2.5 ± 0.1 s⁻¹
- kcat/Km [2]: 19000 M⁻¹ s⁻¹
